# Test results as given in patent US20110059015A1, “VACCINE” (priority 2002, published 2011).
# Positions count from the first letter of the chain named.
# B1: Fab S8: human IgG1 anti-gp120 Fab from LTNP donor; light chain SEQ ID 2, heavy chain SEQ ID 4 (antibody, listed as Homo sapiens)
# heavy: LESGGGLVKPGGSLRLSCAASGFTFSSYAMHWVRQAPGKGLEWVAFIWFDGSNERYADSVKGRFTITRDNPKNTLYLQMNSLRVEDTAVYYCVRRGGSILTGFHLDYWGQGTLVTVSSASTKGPSVFPLAPSSKSTSGGTAALGCLVKDYFPEPVTVSWNSGALTSGVHTFPAVLQSSGLYSLSSVVTVPSSSLGTQTYICNVNHKPSNTKVDKRVEPKSCDKTS
# light: ELTQSPSSLSASVGDRVTITCRASQGIRDDLGWYQQKPGKAPKRLIYAASNLQSGVPSRFSGGGSGTEFTLTISSLQPEDFATYYCLQHNSYPLTFGGGTKVEIKRTVAAPSVFIFPPSDEQLKSGTASVVCLLNNFYPREAKVQWKVDNALQSGNSQESVTEQDSKDSTYSLSSTLTLSKADYEKHKVYACEVTHQGLSSPVTKSFNKGKVLIL
# modifications: S8 Heavy chain; Light chain
# B2: Fab S20: human IgG1 anti-gp120 Fab; light chain SEQ ID 2, heavy chain SEQ ID 8 (antibody, listed as Homo sapiens)
# heavy: B1 heavy with L7V, K9Q, G12R, A19S, T24S, S26R, S27D
# light: B1 light
# modifications: S20 Heavy chain; Light chain
# B3: Fab S19: human IgG1 anti-gp120 Fab; light chain SEQ ID 2, heavy chain SEQ ID 6 (antibody, listed as Homo sapiens)
# heavy: B1 heavy with L7V, K9Q, G12R, T24S, Y28H, A29G
# light: B1 light
# modifications: S19 Heavy chain; Light chain
# Experiments:
# [1] = test system: HIV-1 SF-2; assay: Infectivity reduction assay (IRA) in MT-2 cells, SF-2; format: cell-based; conditions: Fab 10 μg/ml, SF-2, MT-2 cells
# Method: (§1) The infectivity reduction assay (IRA) was performed using in MT-2 cells. Virus titer of LAI, SF-2, MN and RF strains was determined in MT-2 cells and expressed as TCID50 (50% tissue culture infective doses), calculated by the Spearman-Karber formula. Five 10-fold virus dilutions were mixed with different concentrations of Fabs S20, S19, S8, M02 and M025 and incubated (37° C., 1 h, 5% CO2), then added to a 96-well microtiter plate containing 10^5 MT-2 cells/well. Fresh medium (100 μl) was added 4 days later. Cytopathic effect (CPE), characterised by the appearance of giant multinuclear cells, was quantified on day 7. Six replicate wells were made for each dilution. Neutralisation was calculated by the formula % neutralisation=(1−p/n)×100, where p is the mean titer in TCID50/ml of virus produced in cultures incubated with the correspondent mixture and n is the mean titer of virus produced in cultures incubated without Fabs. Each titer point is the mean of two individual experiments.
# [2] = test system: HIV-1 RF; assay: Infectivity reduction assay (IRA) in MT-2 cells, RF; format: cell-based; conditions: Fab 10 μg/ml
# Method: as §1
# [3] = test system: HIV-1 Bal; assay: In vivo neutralisation of HIV-1 Bal infection in SCID-hu-PBMC mice; conditions: Fab 100 μg i.p. x3
# From the text: (A) Neutralisation of the HIV-1 MN strain by IgM Fabs M02 and M025 and IgG Fabs S8, S19 and S20 determined by plaque assay (NPA) in MT-4 cells. […] SCID mice grafted with adult human PBMC (SCID-hu-PBMC) sensitive to HIV-1 infection were infected 2 weeks after reconstitution with cell-free HIV-1 Bal stocks containing 100 TCID50. […] Peritoneal cells were recovered after 15 days and co-cultured with PHA-activated PBMC from HIV-1-seronegative individuals. Co-cultures were monitored in ELISA for HIV-1 core antigen in supernatant at days 7 (left) and 14 (right), and were considered positive when p24 was >30 ng/ml.
# CB.17 SCID/SCID mice were bred and maintained under specific pathogen-free conditions in the Centro Nacional de Biotecnologia animal facility. Eight- to 10-week-old non-leaky phenotype mice were reconstituted by i.p. injection of 20×10^6 freshly isolated normal human PBMC. […] Mice were infected 2 weeks after PBMC reconstitution by i.p. injection of 0.5 ml of diluted cell-free HIV-1 Bal stocks containing 100 TCID50. Two weeks after viral challenge, mice were killed by cervical dislocation and peritoneal cells obtained by washing with ice cold PBS. […] Co-cultures were monitored by ELISA for HIV-1 core antigen in supernatant on days 7 and 14, and were considered positive when p24 was >30 ng/ml.
# [4] = target: gp120 III-B (Human immunodeficiency virus type 1 group M subtype B, UniProt P04578); conditions: donor serum 1/200, Fab 0.01-30 μg/ml
# [5] = test system: HIV-1 MN strain; assay: Neutralisation plaque assay (NPA) in MT-4 cells; format: cell-based
# Method: A neutralisation plaque assay (NPA) was established in MT-4 cells (Harada, et al., 1985) with minor modifications (Sánchez, et al., 1993). Six-well plates (Costar, Calif.) were incubated with 1 ml of poly-L-lysine (50 μg/ml, Sigma) for 60 min at room temperature and washed three times in phosphate-buffered saline (PBS, pH 7). MT-4 cells (4×10^6/well) were added and incubated 2 h, after which unbound cells were removed. Neutralisation was performed with 100 plaque-forming units (pfu) of virus and five purified Fabs (S20, S19, S8, M02 and M025) at different concentrations. The virus-antibody mixture was incubated (37° C., 3 h), slowly added to the plates and adsorbed (37° C., 90 min), after which virus was removed and 2 ml of agarose medium (0.2% SeaPlaque agarose in complete RPMI medium) were added. Plates were incubated (37° C., 5% CO2 atmosphere), and 2 ml of agarose medium were added on day 3. Plaque production was counted with the naked eye on day 7. Neutralisation titer was calculated according to the formula % neutralisation=(1−p/n)×100, where p is the amount of virus produced in presence of the corresponding Fab, n is the mean amount of virus produced without Fab, measured by number of plaques in cultures.
# [6] = test system: HIV-1 X4 (NL4-3); assay: p24 quantification after PBMC infection, X4 strain; format: cell-based; conditions: NL4-3, PBMC, p24 on day 7
# Method: (§2) Excess virus and Fab were removed by washing, and PBMC incubated in complete RPMI 1640 at 37° C. Every two days after infection, half the culture supernatant (500 μl) was removed and replaced with fresh medium containing rhIL-2 and Fabs at the above concentration. Cell-free supernatants were tested for HIV-1 p24 antigen on day 7 using a commercial ELISA test (Coulter, Miami, Fla.). The percentage of neutralisation was calculated as the ratio between p24 levels for test samples a lone or with Fabs. Irrelevant HmFab P1 (10 μg/ml) was used as a negative control.
# [7] = test system: HIV-1 MN; assay: Infectivity reduction assay (IRA) in MT-2 cells, MN; format: cell-based; conditions: Fab 10 μg/ml
# Method: as §1
# [8] = test system: HIV-1 LAI strain; assay: Infectivity reduction assay (IRA) in MT-2 cells, LAI; format: cell-based; conditions: Fab 10 μg/ml
# Method: as §1
# [9] = test system: donor virus isolate (LTNP HIV-1); assay: IRA in PBMC with donor virus isolate; format: cell-based; conditions: Fab 25 μg/ml
# Method: PBMC obtained from the patient in 1996 were cocultured with HIV-1-seronegative PBMC which had been stimulated for 3 days with phytohemagglutinin (PHA). Coculture was maintained in medium with interleukin-2 (IL-2) for at least 40 days (37° C., 5% CO2). Fresh PBMC were added each week and p24 antigen production was monitored every 7 days. Supernatant was harvested and characterised by TCID50% on stimulated PBMC. Supernatant (1 ml) from the coculture (1.3×10^3 TCID50%) was inoculated in 10×10^6 PBMC. After incubation (1 h, 37° C.), cells were centrifugated and 10 ml of RPMI with […] were added. Virus was grown and harvested. This first-passage virus stock was used to perform the IRA in PBMC. […] Medium with IL-2 was changed twice a week. After 14 days, the p24 assay was performed and TCID50% calculated. Neutralisation titer was calculated according to the formula given above.
# [10] = test system: HIV-1 R5 (Bal); assay: p24 quantification after PBMC infection, R5 strain; format: cell-based; conditions: p24 on day 7
# Method: as §2
molecule,measurement,setting,value
B1,% neutralisation,[1],greater than 90%
same,% neutralisation,[2],greater than 90%
same,Fab-treated mice with undetectable p24,"[3]; co-culture day 7, 100 TCID50 HIV-1 Bal",100%
same,Fab-treated mice with undetectable p24,"[3]; co-culture day 14, 100 TCID50 HIV-1 Bal",seven of eight
same,inhibition of gp120 binding of donor serum IgG,[4],inhibited
same,% neutralisation,[5]; Fab 10 μg/ml,100%
same,Fab concentration for 50% neutralisation,[6],less than 0.1 μg/ml
same,% neutralisation,[7],greater than 90%
same,neutralisation,[8],poorly neutralised
same,% neutralisation,[9],32%
same,Fab concentration for 50% neutralisation,[10],less than 0.1 μg/ml
B2,% neutralisation,[5]; Fab 1 μg/ml,100%
B3,% neutralisation,[5]; Fab 20 μg/ml,92%
